One protein from paper PMC4671291 (The Biochemical journal, 2011) can be followed below.

The data set concerns the molecule itself. Description: SEC. In general terms: In gel filtration, larger molecules generally elute earlier.

B1: Saccharomyces cerevisiae dUTP pyrophosphatase DUT1 (enzyme, S. cerevisiae)
chain: MTATSDKVLKIQLRSASATVPTKGSATAAGYDIYASQDITIPAMGQGMVSTDISFTVPVGTYGRIAPRSGLAVKNGIQTGAGVVDRDYTGEVKVVLFNHSQRDFAIKKGDRVAQLILEKIVDDAQIVVVDSLEESARGAGGFGSTGN
B1: the stoichiometry N (in general, the number of molecules, sites or subunits per partner or assembly) came to 3.
